This is an account of results in article PMC7913765, “Dynamics of the HD regulatory subdomain of PARP-1; substrate access and allostery in PARP activation and inhibition”.

The Kd is the constant that tells how readily two partners part at equilibrium.

What all share (conditions): protein: recombinant; tags: N-terminal 6His-6Lys tag, TEV site; label: biotin (internal dT, streptavidin chip); dumbbell of two hairpins with T7 loops, nick between the 5' and 3' ends; stems 13 and 12 bp
Data set [1] addresses T1, PARP-1 full-length (human, UniProt P09874 2-1014). Kind of data set: SPR; no inhibitor; SPR (Biacore 8K): 20 mM HEPES, 150 mM NaCl, 1 mM TCEP, 0.05% Tween-20, 1% (v/v) (component not given), pH not stated, 25 C; PARP-1 0.078-20 nM; n = 6. (In general: Surface plasmon resonance follows binding to a sensor surface in real time, without labels.)
Data set [2] has as its target T1, PARP-1 full-length. The experiment in a line: SPR; olaparib (10 mM [sic]); SPR (Biacore 8K): 20 mM HEPES, 150 mM NaCl, 1 mM TCEP, 0.05% Tween-20, 1% (v/v) (component not given), pH not stated, 25 C; PARP-1 0.078-20 nM; n = 6.
Data set [3] concerns the target T1, PARP-1 full-length. The experiment in a line: SPR; veliparib (10 mM [sic]); SPR (Biacore 8K): 20 mM HEPES, 150 mM NaCl, 1 mM TCEP, 0.05% Tween-20, 1% (v/v) (component not given), pH not stated, 25 C; PARP-1 0.078-20 nM; n = 6.
Data set [4] deals with T1, PARP-1 full-length. Kind of data set: SPR; EB-47 (100 mM [sic]); SPR (Biacore 8K): 20 mM HEPES, 150 mM NaCl, 1 mM TCEP, 0.05% Tween-20, 1% (v/v) (component not given), pH not stated, 25 C; PARP-1 0.078-20 nM; n = 6.

T1 sequence (P09874 2-1014): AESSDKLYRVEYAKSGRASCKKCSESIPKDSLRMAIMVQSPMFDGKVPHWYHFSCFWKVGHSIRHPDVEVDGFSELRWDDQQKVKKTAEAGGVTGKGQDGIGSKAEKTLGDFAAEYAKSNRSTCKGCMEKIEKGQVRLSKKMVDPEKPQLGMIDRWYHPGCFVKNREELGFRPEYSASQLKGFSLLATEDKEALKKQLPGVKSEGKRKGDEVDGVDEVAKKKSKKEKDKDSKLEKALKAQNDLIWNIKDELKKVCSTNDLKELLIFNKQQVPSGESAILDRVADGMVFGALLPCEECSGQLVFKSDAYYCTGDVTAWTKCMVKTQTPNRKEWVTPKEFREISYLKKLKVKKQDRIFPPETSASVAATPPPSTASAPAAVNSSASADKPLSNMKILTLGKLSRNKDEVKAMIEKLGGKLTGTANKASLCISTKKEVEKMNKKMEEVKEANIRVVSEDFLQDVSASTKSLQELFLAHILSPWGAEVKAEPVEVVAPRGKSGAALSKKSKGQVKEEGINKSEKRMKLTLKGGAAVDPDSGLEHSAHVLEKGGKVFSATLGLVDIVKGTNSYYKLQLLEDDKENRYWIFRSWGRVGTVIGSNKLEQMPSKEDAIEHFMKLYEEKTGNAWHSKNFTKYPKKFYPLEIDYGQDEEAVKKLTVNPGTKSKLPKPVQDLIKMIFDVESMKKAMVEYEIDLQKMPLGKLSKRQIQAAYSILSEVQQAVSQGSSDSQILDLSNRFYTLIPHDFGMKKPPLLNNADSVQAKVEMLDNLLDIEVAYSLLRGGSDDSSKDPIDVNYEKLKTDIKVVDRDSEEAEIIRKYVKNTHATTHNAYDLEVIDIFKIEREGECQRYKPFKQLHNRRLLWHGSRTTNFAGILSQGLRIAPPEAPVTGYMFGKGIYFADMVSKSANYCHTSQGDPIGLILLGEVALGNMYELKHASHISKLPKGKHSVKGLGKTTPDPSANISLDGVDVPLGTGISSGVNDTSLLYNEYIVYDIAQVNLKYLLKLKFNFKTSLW

B1: biotinylated hairpin DNA (dumbbell single-strand break model) (structured_DNA)
DNA: GACAACCCGGCGCTTTTTTTGCGCCGGGTTGTCTGGCCCAGTTCGTTTTTTTCGAACTGGGCCA
modifications: biotin-dT at position 17 (written as T; between S1 and S2)
Regarding B1, the Kd turned out to be 2.1 nM in the data set with PARP-1 full-length [1], 2.1 nM in the data set with PARP-1 full-length [2], 4.2 nM with PARP-1 full-length [3] and 0.13 nM with PARP-1 full-length [4].
